# Results from the supplement of paper PMC5998384.
# Key:
# HeLa Kyoto [1] = assay: solubility in G1/S (NP-40 vs SDS abundance) (log2 ratio); higher = more soluble; conditions: cell cycle stage: G1/S
# HeLa Kyoto [2] = assay: solubility change mitosis vs G1/S (difference of NP-40 vs SDS log2 ratios) (log2 ratio difference); higher = more soluble in mitosis
# HeLa Kyoto [3] = assay: thermal stability score vs G1/S (z-score of summed log2 fold changes over temperatures); higher = more thermally stable than in G1/S
# [4] = cell cycle stage: early G1 (4.5 h after nocodazole release)
# 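For solubility change mitosis vs G1/S (difference of NP-40 vs SDS log2 ratios) in this document: synchronized HeLa Kyoto cells (double thymidine block for G1/S, nocodazole release for mitosis), protein amounts in NP-40 versus SDS lysates quantified by mass spectrometry, three biological replicates.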
# 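For solubility in G1/S (NP-40 vs SDS abundance) in this document: HeLa Kyoto cells arrested at G1/S by double thymidine block, proteins quantified by TMT10plex mass spectrometry in mild NP-40 versus SDS extracts, three biological replicates.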
# 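For thermal stability score vs G1/S (z-score of summed log2 fold changes over temperatures) in this document: synchronized HeLa Kyoto cells, proteins quantified by TMT10plex mass spectrometry, three biological replicates, mitosis taken 0.5 h after nocodazole release, G1/S directly after double thymidine block.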
# Chain of ISG20 (chain, as listed by the source): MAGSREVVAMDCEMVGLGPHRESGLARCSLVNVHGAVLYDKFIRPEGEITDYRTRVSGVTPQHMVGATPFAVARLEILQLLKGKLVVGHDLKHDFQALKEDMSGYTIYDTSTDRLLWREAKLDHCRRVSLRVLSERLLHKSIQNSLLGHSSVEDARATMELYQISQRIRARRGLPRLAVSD
# Chain of CLK4 (chain, as listed by the source): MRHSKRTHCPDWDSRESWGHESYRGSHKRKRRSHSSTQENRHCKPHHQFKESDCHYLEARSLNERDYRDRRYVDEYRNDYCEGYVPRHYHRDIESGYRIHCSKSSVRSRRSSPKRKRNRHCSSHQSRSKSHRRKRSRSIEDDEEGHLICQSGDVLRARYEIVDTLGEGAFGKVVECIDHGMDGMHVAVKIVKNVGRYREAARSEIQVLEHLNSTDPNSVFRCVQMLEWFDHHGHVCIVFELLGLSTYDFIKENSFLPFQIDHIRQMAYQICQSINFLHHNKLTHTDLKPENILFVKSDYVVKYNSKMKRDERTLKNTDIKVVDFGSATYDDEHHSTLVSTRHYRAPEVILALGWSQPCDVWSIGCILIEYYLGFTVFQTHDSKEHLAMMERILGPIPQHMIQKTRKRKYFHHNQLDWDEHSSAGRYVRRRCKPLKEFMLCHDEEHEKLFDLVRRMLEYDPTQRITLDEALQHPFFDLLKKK
# Chain of EPB41L5 (chain, as listed by the source): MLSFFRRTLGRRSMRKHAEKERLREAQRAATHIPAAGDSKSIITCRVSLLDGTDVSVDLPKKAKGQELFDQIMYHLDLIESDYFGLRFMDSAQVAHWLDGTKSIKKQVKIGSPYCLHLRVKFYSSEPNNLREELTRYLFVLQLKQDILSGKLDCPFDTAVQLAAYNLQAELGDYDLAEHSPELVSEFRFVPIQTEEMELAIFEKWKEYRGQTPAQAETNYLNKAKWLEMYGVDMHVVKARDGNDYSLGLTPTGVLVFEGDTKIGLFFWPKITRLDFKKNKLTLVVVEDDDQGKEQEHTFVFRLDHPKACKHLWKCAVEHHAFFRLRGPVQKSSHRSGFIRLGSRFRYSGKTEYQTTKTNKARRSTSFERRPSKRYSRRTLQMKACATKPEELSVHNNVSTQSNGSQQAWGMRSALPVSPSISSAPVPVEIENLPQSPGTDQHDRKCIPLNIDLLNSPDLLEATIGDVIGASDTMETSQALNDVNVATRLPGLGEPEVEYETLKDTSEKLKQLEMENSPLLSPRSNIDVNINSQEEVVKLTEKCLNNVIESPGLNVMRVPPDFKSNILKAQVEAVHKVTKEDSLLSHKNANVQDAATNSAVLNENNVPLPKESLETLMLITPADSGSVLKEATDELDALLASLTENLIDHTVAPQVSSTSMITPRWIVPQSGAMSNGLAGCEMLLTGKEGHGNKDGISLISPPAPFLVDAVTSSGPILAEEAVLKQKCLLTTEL
# Chain of ARNTL (chain, as listed by the source): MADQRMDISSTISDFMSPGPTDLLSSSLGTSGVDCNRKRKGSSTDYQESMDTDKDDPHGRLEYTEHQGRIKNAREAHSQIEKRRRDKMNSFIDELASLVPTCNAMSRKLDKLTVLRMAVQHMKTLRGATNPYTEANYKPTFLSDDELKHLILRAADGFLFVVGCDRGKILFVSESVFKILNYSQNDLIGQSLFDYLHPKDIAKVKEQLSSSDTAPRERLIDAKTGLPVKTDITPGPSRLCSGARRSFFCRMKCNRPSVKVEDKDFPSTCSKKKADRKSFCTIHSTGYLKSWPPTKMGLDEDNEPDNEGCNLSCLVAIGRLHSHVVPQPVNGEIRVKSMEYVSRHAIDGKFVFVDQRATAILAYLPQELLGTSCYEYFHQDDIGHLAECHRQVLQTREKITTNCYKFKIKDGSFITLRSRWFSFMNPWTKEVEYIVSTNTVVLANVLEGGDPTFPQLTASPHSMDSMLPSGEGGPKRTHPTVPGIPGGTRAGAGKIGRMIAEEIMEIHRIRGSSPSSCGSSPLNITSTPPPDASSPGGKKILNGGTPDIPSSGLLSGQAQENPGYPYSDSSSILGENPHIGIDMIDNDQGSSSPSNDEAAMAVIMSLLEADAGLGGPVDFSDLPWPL
Substance,solubility change mitosis (log2) (HeLa Kyoto [2]),further results
ANKRD11,0.268,solubility in G1/S (log2) (HeLa Kyoto [1]): -0.497
ARHGEF17,0.166,solubility in G1/S (log2) (HeLa Kyoto [1]): -0.434
ARNTL,-0.179,solubility in G1/S (log2) (HeLa Kyoto [1]): -0.0786
BRCA1,0.246,solubility in G1/S (log2) (HeLa Kyoto [1]): -0.318
CAPN15,-0.0119,solubility in G1/S (log2) (HeLa Kyoto [1]): -0.427
CEP192,-0.137,solubility in G1/S (log2) (HeLa Kyoto [1]): -0.295
CEP350,0.0106,solubility in G1/S (log2) (HeLa Kyoto [1]): 0.00287
CHD1,0.383,solubility in G1/S (log2) (HeLa Kyoto [1]): -2.28
CLIC3,-0.00439,solubility in G1/S (log2) (HeLa Kyoto [1]): 0.369
CLK4,0.508,solubility in G1/S (log2) (HeLa Kyoto [1]): -1.44
EPB41L5,0.268,solubility in G1/S (log2) (HeLa Kyoto [1]): -0.503
EVPL,0.319,solubility in G1/S (log2) (HeLa Kyoto [1]): -0.382
FAM208B,0.423,solubility in G1/S (log2) (HeLa Kyoto [1]): -0.671
ICE1,0.51,solubility in G1/S (log2) (HeLa Kyoto [1]): -0.864
ISG20,-0.182,solubility in G1/S (log2) (HeLa Kyoto [1]): 0.28
KIAA0368,-0.156,solubility in G1/S (log2) (HeLa Kyoto [1]): 0.0203
KMT2C,-0.0115,solubility in G1/S (log2) (HeLa Kyoto [1]): 0.137
MAAAAAETPEVLRECGCKGIRTCLICERQRGSDPPWELPPAKTYRFIYCSDTGWAVGTEESDFEGWAFPFPGVMLIEDFVTREEEAELVRLMDRDPWKLSQSGRRKQDYGPKVNFRKQKLKTEGFCGLPSFSREVVRRMGLYPGLEGFRPVEQCNLDYCPERGSAIDPHLDDAWLWGERLVSLNLLSPTVLSMCREAPGSLLLCSAPSAAPEALVDSVIAPSRSVLCQEVEVAIPLPARSLLVLTGAARHQWKHAIHRRHIEARRVCVTFRELSAEFGPGGRQQELGQELLRIALSFQGRPV [ALKBH4],-0.0312,solubility in G1/S (log2) (HeLa Kyoto [1]): 0.184
MAAALPRTLGELQLYRILQKANLLSYFDAFIQQGGDDVQQLCEAGEEEFLEIMALVGMASKPLHVRRLQKALRDWVTNPGLFNQPLTSLPVSSIPIYKLPEGSPTWLGISCSSYERSSNAREPHLKIPKCAATTCVQSLGQGKSDVVGSLALQSVGESRLWQGHHATESEHSLSPADLGSPASPKESSEALDAAAALSVAECVERMAPTLPKSDLNEVKELLKTNKKLAKMIGHIFEMNDDDPHKEEEIRKYSAIYGRFDSKRKDGKHLTLHELTVNEAAAQLCVKDNALLTRRDELFALARQISREVTYKYTYRTTKSKCGERDELSPKRIKVEDGFPDFQDSVQTLFQQARAKSEELAALSSQQPEKVMAKQMEFLCNQAGYERLQHAERRLSAGLYRQSSEEHSPNGLTSDNSDGQGERPLNLRMPNLQNRQPHHFVVDGELSRLYPSEAKSHSSESLGILKDYPHSAFTLEKKVIKTEPEDSR [NAB1],0.105,solubility in G1/S (log2) (HeLa Kyoto [1]): 0.187
MAAATVGRDTLPEHWSYGVCRDGRVFFINDQLRCTTWLHPRTGEPVNSGHMIRSDLPRGWEEGFTEEGASYFIDHNQQTTAFRHPVTGQFSPENSEFILQEEPNPHMSKQDRNQRPSSMVSETSTAGTASTLEAKPGPKIIKSSSKVHSFGKRDQAIRRNPNVPVVVRGWLHKQDSSGMRLWKRRWFVLADYCLFYYKDSREEAVLGSIPLPSYVISPVAPEDRISRKYSFKAVHTGMRALIYNSSTAGSQAEQSGMRTYYFSADTQEDMNAWVRAMNQAAQVLSRSSLKRDMEKVERQAVPQANHTESCHECGRVGPGHTRDCPHRGHDDIVNFERQEQEGEQYRSQRDPLEGKRDRSKARSPYSPAEEDALFMDLPTGPRGQQAQPQRAEKNGMLPASYGPGEQNGTGGYQRAFPPRTNPEKHSQRKSNLAQVEHWARAQKGDSRSLPLDQTLPRQGPGQSLSFPENYQTLPKSTRHPSGGSSPPPRNLPSDYKYAQDRASHLKMSSEERRAHRDGTVWQLYEWQQRQQFRHGSPTAPICLGSPEFTDQGRSRSMLEVPRSISVPPSPSDIPPPGPPRVFPPRRPHTPAERVTVKPPDQRRSVDISLGDSPRRARGHAVKNSSHVDRRSMPSMGYMTHTVSAPSLHGKSADDTYLQLKKDLEYLDLKMTGRDLLKDRSLKPVKIAESDTDVKLSIFCEQDRVLQDLEDKIRALKENKDQLESVLEVLHRQMEQYRDQPQHLEKIAYQQKLLQEDLVHIRAELSRESTEMENAWNEYLKLENDVEQLKQTLQEQHRRAFFFQEKSQIQKDLWRIEDVTAGLSANKENFRILVESVKNPERKTVPLFPHPPVPSLSTSESKPPPQPSPPTSPVRTPLEVRLFPQLQTYVPYRPHPPQLRKVTSPLQSPTKAKPKVEDEAPPRPPLPELYSPEDQPPAVPPLPREATIIRHTSVRGLKRQSDERKRDRELGQCVNGDSRVELRSYVSEPELATLSGDMAQPSLGLVGPESRYQTLPGRGLSGSTSRLQQSSTIAPYVTLRRGLNAESSKATFPRPKSALERLYSGDHQRGKMSAEEQLERMKRHQKALVRERKRTLGQGERTGLPSSRYLSRPLPGDLGSVC [PLEKHA7],0.454,solubility in G1/S (log2) (HeLa Kyoto [1]): -0.548
MAAELVEAKNMVMSFRVSDLQMLLGFVGRSKSGLKHELVTRALQLVQFDCSPELFKKIKELYETRYAKKNSEPAPQPHRPLDPLTMHSTYDRAGAVPRTPLAGPNIDYPVLYGKYLNGLGRLPAKTLKPEVRLVKLPFFNMLDELLKPTELVPQNNEKLQESPCIFALTPRQVELIRNSRELQPGVKAVQVVLRICYSDTSCPQEDQYPPNIAVKVNHSYCSVPGYYPSNKPGVEPKRPCRPINLTHLMYLSSATNRITVTWGNYGKSYSVALYLVRQLTSSELLQRLKTIGVKHPELCKALVKEKLRLDPDSEIATTGVRVSLICPLVKMRLSVPCRAETCAHLQCFDAVFYLQMNEKKPTWMCPVCDKPAPYDQLIIDGLLSKILSECEDADEIEYLVDGSWCPIRAEKERSCSPQGAILVLGPSDANGLLPAPSVNGSGALGSTGGGGPVGSMENGKPGADVVDLTLDSSSSSEDEEEEEEEEEDEDEEGPRPKRRCPFQKGLVPAC [PIAS4],-0.116,solubility in G1/S (log2) (HeLa Kyoto [1]): 0.228
MAGRVPSLLVLLVFPSSCLAFRSPLSVFKRFKETTRPFSNECLGTTRPVVPIDSSDFALDIRMPGVTPKQSDTYFCMSMRIPVDEEAFVIDFKPRASMDTVHHMLLFGCNMPSSTGSYWFCDEGTCTDKANILYAWARNAPPTRLPKGVGFRVGGETGSKYFVLQVHYGDISAFRDNNKDCSGVSLHLTRLPQPLIAGMYLMMSVDTVIPAGEKVVNSDISCHYKNYPMHVFAYRVHTHHLGKVVSGYRVRNGQWTLIGRQSPQLPQAFYPVGHPVDVSFGDLLAARCVFTGEGRTEATHIGGTSSDEMCNLYIMYYMEAKHAVSFMTCTQNVAPDMFRTIPPEANIPIPVKSDMVMMHEHHKETEYKDKIPLLQQPKREEEEVLDQGDFYSLLSKLLGEREDVVHVHKYNPTEKAESESDLVAEIANVVQKKDLGRSDAREGAEHERGNAILVRDRIHKFHRLVSTLRPPESRVFSLQQPPPGEGTWEPEHTGDFHMEEALDWPGVYLLPGQVSGVALDPKNNLVIFHRGDHVWDGNSFDSKFVYQQIGLGPIEEDTILVIDPNNAAVLQSSGKNLFYLPHGLSIDKDGNYWVTDVALHQVFKLDPNNKEGPVLILGRSMQPGSDQNHFCQPTDVAVDPGTGAIYVSDGYCNSRIVQFSPSGKFITQWGEESSGSSPLPGQFTVPHSLALVPLLGQLCVADRENGRIQCFKTDTKEFVREIKHSSFGRNVFAISYIPGLLFAVNGKPHFGDQEPVQGFVMNFSNGEIIDIFKPVRKHFDMPHDIVASEDGTVYIGDAHTNTVWKFTLTEKLEHRSVKKAGIEVQEIKEAEAVVETKMENKPTSSELQKMQEKQKLIKEPGSGVPVVLITTLLVIPVVVLLAIAIFIRWKKSRAFGDSEHKLETSSGRVLGRFRGKGSGGLNLGNFFASRKGYSRKGFDRLSTEGSDQEKEDDGSESEEEYSAPLPALAPSSS [PAM],-0.0982,thermal stability score (HeLa Kyoto [3]; [4]): -1.73; thermal stability score (HeLa Kyoto [3]; cell cycle stage: mitosis): -2.21
MRPL14,0.104,–
MRPL23,0.185,–
MRPL24,0.022,–
MRPL27,0.243,–
MRPL37,-0.0819,–

Substance,solubility change mitosis (log2) (HeLa Kyoto [2]),further results
MRPL39,-0.14,–
MRPL45,-0.0934,–
MRPL48,-0.0228,–
MRPL51,-0.136,–
MRPL54,0.343,–
MRPS7,-0.0353,–
MRPS15,0.176,–
MRPS16,-0.0244,–
MRPS27,-0.149,–
MRPS34,0.0157,–
MTMR1,0.0778,–
MTOR,-0.154,–
MWSAGRGGAAWPVLLGLLLALLVPGGGAAKTGAELVTCGSVLKLLNTHHRVRLHSHDIKYGSGSGQQSVTGVEASDDANSYWRIRGGSEGGCPRGSPVRCGQAVRLTHVLTGKNLHTHHFPSPLSNNQEVSAFGEDGEGDDLDLWTVRCSGQHWEREAAVRFQHVGTSVFLSVTGEQYGSPIRGQHEVHGMPSANTHNTWKAMEGIFIKPSVEPSAGHDEL [SDF2L1],-0.0974,thermal stability score (HeLa Kyoto [3]; [4]): 4.06; thermal stability score (HeLa Kyoto [3]; cell cycle stage: mitosis): 1.19
NCAPG,-0.0373,–
NDUFB10,0.185,–
NEGR1,-0.204,–
NOC2L,0.667,–
NUDT5,0.0137,–
OLR1,0.51,–
OXA1L,-0.112,–
PHLDA3,0.0241,–
POLR2A,0.228,–
POLR2C,0.102,–
POLR2K,0.187,–
PRKACA,-0.0702,–
RAN,0.0277,–
RBM8A,0.468,–

Substance,solubility change mitosis (log2) (HeLa Kyoto [2]),further results
RBX1,-0.338,–
RPL6,0.908,–
RPL7,0.696,–
RPL11,0.596,–
RPL15,0.657,–
RPL23A,0.826,–
RPL24,0.971,–
RPL27A,1.02,–
RPL31,0.763,–
RPL34,0.894,–
RPL36,0.849,–
RPL36A,0.902,–
RPL38,0.638,–
RPS3,0.437,–
RPS6,0.803,–
RPS11,0.597,–
RPS12,0.588,–
RPS14,0.203,–
RPS27A,0.852,–
RSL1D1,1.5,–
SETDB1,-0.0625,–
SNRPN,0.368,–
SUB1,0.154,–
TCEA1,-0.0112,–
TOLLIP,0.0779,–
TRIM16,-0.177,–
